In test [1] the target is T1, pS46 tau peptide.
T1 construct: Partial peptide of tau coated on the ELISA plate
T1 peptide: GLKE[pS]P
The test can be described thus: peptide ELISA. (An ELISA detects its analyte on a solid surface through an enzyme-linked reagent.)

Test [2] addresses T2, pS199 tau peptide.
T2 construct: Partial peptide of tau coated on the ELISA plate
T2 peptide: SGYS[pS]PGSPG
Put plainly: peptide ELISA.

Test [3] deals with T3, pS202 tau peptide.
T3 construct: Partial peptide of tau coated on the ELISA plate
T3 peptide: SSPG[pS]SPGTPC
The test can be described thus: peptide ELISA.

Test [4] deals with T4, pT212 tau peptide.
T4 construct: Partial peptide of tau coated on the ELISA plate
T4 peptide: SRSR[pT]PSLPTP
The test can be described thus: peptide ELISA.

Test [5] has as its target T5, pS214 tau peptide.
T5 peptide: SRSRTP[pS]LPTP
The test can be described thus: peptide ELISA.

The target of test [6] is T6, pT212/pS214 tau peptide.
T6 peptide: SRSR[pT]P[pS]LPTP
Put plainly: peptide ELISA.

For test [7], the target named is T7, pT217 tau peptide.
T7 construct: Partial peptide of tau coated on the ELISA plate
T7 peptide: PSLP[pT]PPTR
The test can be described thus: peptide ELISA.

The target of test [8] is T8, pS400-BSA (phosphorylated as its name says (pS400); conjugated to BSA).
T8 construct: BSA-conjugated tau peptide coated on the ELISA plate
Put plainly: peptide ELISA.

In test [9] the target is T9, pS412-BSA (phosphorylated as its name says (pS412); conjugated to BSA).
T9 construct: BSA-conjugated tau peptide coated on the ELISA plate
The test can be described thus: peptide ELISA.

The target in test [10] is pSer413(Im) peptide (human). The test can be described thus: SPR (Biacore 3000), antibody captured by anti-mouse antibody, peptide as analyte, single cycle kinetics. On the technique in general: In SPR one partner is held on a chip, and binding of the other changes the refractive index at the surface.

Here are results for seven molecules from US20220340646A1 (OSAKA CITY UNIVERSITY, published 2022).

A word on the Kd: it is a measure of binding affinity in units of concentration. A low value points to tighter binding. As usually defined, the koff is the first-order rate constant of dissociation. A low value points to slow dissociation. As usually defined, the kon is the rate constant with which the complex forms. Higher therefore signals fast association.

Where a chain is given by its changes, count along the chain named. Non-standard residues stand in square brackets, D forms with d. No end group written: not given here. pT = C[C@@H](OP(=O)(O)O)[C@H](N)C(=O)O; pS = N[C@@H](COP(=O)(O)O)C(=O)O

Chain of pSer413(Im) peptide (human) (peptide, as listed by the source): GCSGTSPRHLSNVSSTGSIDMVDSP
T8 sequence (P02769 25-607 limits assumed): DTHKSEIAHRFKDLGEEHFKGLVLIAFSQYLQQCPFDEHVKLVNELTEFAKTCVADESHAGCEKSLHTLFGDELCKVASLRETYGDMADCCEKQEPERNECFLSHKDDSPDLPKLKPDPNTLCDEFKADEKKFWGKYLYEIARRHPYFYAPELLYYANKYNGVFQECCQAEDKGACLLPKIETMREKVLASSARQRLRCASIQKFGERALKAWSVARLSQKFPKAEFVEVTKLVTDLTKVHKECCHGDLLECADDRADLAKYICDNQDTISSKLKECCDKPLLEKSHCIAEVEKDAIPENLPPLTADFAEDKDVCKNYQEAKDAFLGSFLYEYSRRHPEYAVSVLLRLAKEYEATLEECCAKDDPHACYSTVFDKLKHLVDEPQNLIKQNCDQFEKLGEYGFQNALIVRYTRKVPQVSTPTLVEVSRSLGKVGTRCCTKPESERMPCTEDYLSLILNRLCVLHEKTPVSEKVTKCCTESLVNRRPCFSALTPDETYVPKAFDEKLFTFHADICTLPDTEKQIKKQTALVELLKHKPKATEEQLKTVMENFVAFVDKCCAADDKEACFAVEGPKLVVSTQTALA
T9 sequence (P02769 25-607 limits assumed): as above

B1: Ta1505 (antibody, V domains shown)
VH: EVQLVESGGGLVQPKGSLKLSCAASGFAFNSFALNWVRQAPGKSLEWVVHIRSKTNNYATFYADSVKDRFTVSRDDSQSMVYLQMNNLKTEDTGIYYCVRRGPRDSWFGYWGQGTLVTVSA
VL: DILMTQTPLSLPVSLGDQASISCRSSQNIVHSNGNTYLEWYLQKPGQSPKVLIYTVSNRFSGVPDRFSGSGSGTDFTLKISRVEAEDLGVYYCFQGSHLPLTFGGGTKL
notes: also called Ta1505-2
Regarding B1, the binding result in test [1], in test [2], in [3], in test [4], in test [5] and in [6] was “no binding (tested: 1 µg/mL)” throughout. Further, the binding result in test [7], in test [8] and in test [9] was “no binding (tested: 1 µg/mL)” each time. In [10], this molecule had a Kd of 3.87 nM. In test [10], the koff stood at 0.000499 s⁻¹. The same molecule registered a kon in test [10] of 129000 M⁻¹ s⁻¹.

B2: Ta1508 (antibody, V domains shown)
VH: EVHLVESGGGLVQPKGSLKLSCAASGFAFNSFAMNWVRQAPGKGLDWIAHIRSKTNNYVTFYADSVKGRFSISRDDSQSMVYLQMNNLQTEDTGIYYCVRRGPRDSWFGYWGQGTLVTVSA
VL: B1 VL with D1V, I2V
notes: also called Ta15 Series
Regarding B2, the binding result in test [1], in test [2], in [3], in [4], in test [5] and in test [6] was “no binding (tested: 1 µg/mL)” in each case. The binding result in test [7], in test [8] and in test [9] was “no binding (tested: 1 µg/mL)” throughout. This molecule also gave a Kd in [10] of 6.76 nM. Further, the off-rate constant (koff) in [10] is 0.00098 s⁻¹. The same molecule had a kon in test [10] of 145000 M⁻¹ s⁻¹.

B3: Ta1509 (antibody, V domains shown)
VH: B2 VH with H3Q, T55S, G68D, S71I, V81I, Q89K, T93S
VL: B1 VL with I2V, T7S, S32T
notes: also called Ta15 Series
As for B3, the binding result in [1], in [2], in test [3], in [4], in [5] and in test [6] was “no binding (tested: 1 µg/mL)” throughout. For the same molecule, the binding result in test [7], in test [8] and in test [9] was “no binding (tested: 1 µg/mL)” each time. The Kd in test [10] is 14.4 nM. The molecule further displayed a koff in test [10] of 0.00125 s⁻¹. In addition, the kon in [10] was 87100 M⁻¹ s⁻¹.

B4: Ta1506 (antibody, V domains shown)
VH: B2 VH with G44A
VL: B1 VL with D1G, I2V, T7I
notes: also called Ta15 Series
Consider B4, for which the binding result in test [1], in [2], in test [3], in [4], in test [5] and in [6] was “no binding (tested: 1 µg/mL)” each time. In addition, the binding result in [7], in test [8] and in test [9] was “no binding (tested: 1 µg/mL)” throughout. In test [10], this molecule showed a Kd of 9.75 nM. For the same molecule, the koff in test [10] was 0.00194 s⁻¹. The same molecule gave a kon in test [10] of 199000 M⁻¹ s⁻¹.

B5: Ta1501 (antibody, V domains shown)
VH: B2 VH with G10E, A40T, D46N, I48V, V59A, G68D, S71T, S79N, V81L, Q89K
VL: B1 VL with I2V, Q18H
notes: also called Ta15 Series
As for B5, the binding result in [1], in test [2], in test [3], in [4], in test [5] and in [6] was “no binding (tested: 1 µg/mL)” in each case. Further, the binding result in [7], in test [8] and in test [9] was “no binding (tested: 1 µg/mL)” throughout. The Kd in test [10] stood at 18.6 nM. This molecule also came in with a koff in [10] of 0.00105 s⁻¹. Further, in test [10], the kon stood at 56400 M⁻¹ s⁻¹.

B6: Ta1507 (antibody, V domains shown)
VH: B1 VH with V2I, N30S, E46D, V49A, T55A, N57H, A59V
VL: B1 VL with I2V, M4L
notes: also called Ta15 Series
In the case of B6, the binding result in test [1], in test [2], in test [3], in test [4], in test [5] and in test [6] was “no binding (tested: 1 µg/mL)” throughout. The binding result in test [7], in test [8] and in test [9] was “no binding (tested: 1 µg/mL)” each time. The same molecule showed a Kd in [10] of 4.2 nM. In addition, in test [10], the koff stood at 0.000533 s⁻¹. Also, the kon in [10] was determined as 127000 M⁻¹ s⁻¹.

B7: Ta1502 (antibody, V domains shown)
VH: B1 VH with S79N
VL: B1 VL
notes: also called Ta15 Series
Take B7: the binding result in [1], in test [2], in test [3], in test [4], in test [5] and in test [6] was “no binding (tested: 1 µg/mL)” throughout. Further, the binding result in test [7], in test [8] and in test [9] was “no binding (tested: 1 µg/mL)” throughout. Moreover, the Kd in test [10] was determined as 4.2 nM. In test [10], this molecule gave a koff of 0.00047 s⁻¹. The same molecule yielded a kon in [10] of 112000 M⁻¹ s⁻¹.
